Experimental data published in PMC4593670.

Target: F-ATPase from Paracoccus denitrificans (nine core subunits α, β, γ, δ, ε, a, b, b' and c) (Paracoccus denitrificans (strain PD1222)) (UniProt A1B8N8)
Assay: reverse-phase LC-MS of the subunits of the purified complex; subunits of F-ATPase I fractionated by reverse-phase chromatography, online electrospray MS; amounts estimated from peak areas of the ion traces, ζ against the δ-subunit

UniProt A1B8N8, sequence (A1B8N8 whole entry, looked up, stated change not applied, tested part not stated): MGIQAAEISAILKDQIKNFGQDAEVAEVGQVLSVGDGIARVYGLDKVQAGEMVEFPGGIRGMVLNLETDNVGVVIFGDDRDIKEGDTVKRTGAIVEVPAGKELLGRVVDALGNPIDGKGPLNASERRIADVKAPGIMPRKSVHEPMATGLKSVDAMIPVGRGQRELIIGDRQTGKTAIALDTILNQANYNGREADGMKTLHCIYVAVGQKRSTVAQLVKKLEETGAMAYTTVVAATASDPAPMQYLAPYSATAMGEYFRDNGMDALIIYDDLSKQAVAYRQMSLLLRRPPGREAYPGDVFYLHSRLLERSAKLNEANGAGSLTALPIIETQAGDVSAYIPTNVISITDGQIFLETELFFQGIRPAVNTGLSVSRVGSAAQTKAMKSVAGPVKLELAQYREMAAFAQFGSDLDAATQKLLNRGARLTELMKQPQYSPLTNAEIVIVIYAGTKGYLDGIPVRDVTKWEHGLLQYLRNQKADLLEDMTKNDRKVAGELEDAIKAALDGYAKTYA

stoichiometry N (ζ-protein per F-ATPase complex): 1
Substance: ζ inhibitor protein of the F-ATPase from Paracoccus denitrificans (natural protein)
